Data published in publication PMC8599769.
Where two headings read alike, the source gives them in different places.

Target: T1, PhoB~P (phosphorylated response regulator PhoB) (Escherichia coli) (UniProt P0AFJ5)
T1 sequence: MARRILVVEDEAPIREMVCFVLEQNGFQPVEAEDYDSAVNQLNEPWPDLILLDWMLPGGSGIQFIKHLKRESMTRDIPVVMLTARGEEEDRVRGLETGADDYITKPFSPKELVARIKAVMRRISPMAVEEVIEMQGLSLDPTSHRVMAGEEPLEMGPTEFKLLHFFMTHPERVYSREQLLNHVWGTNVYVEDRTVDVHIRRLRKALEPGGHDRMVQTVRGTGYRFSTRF
Experiment: EMSA

With “ATCACATGGTCCTGCTGGAGTTCGTGACCGCCGCCGGGATCACTCTCGGCATGGACGAGCTGTACAAGTAGCTGACCCGGGGAGGGTCGTTCTGTCATAAAACTGTCATATTCCACCGGGAAGGCTTGAGCTCCTAGATACATTCAAATATGTATCCGCTCATGAGACAATAACCCTGATA (double strand) [Decoy DNA (1 PhoB consensus site)]” the Kd was 200 nM.

For phnC promoter PhoB site DNA, the Kd (cited from earlier work) is given as 1500 nM.
